Columns and labels:
mouse IL-1beta = molecular target: T1, mouse IL-1beta (mouse, UniProt P10749); assay: SPR, 8 nM
T1 chain: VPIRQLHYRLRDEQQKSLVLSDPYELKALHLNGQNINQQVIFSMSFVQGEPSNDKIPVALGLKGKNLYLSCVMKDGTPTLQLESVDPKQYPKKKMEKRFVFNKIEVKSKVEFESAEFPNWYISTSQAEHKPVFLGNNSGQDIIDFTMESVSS

rat IL-1beta = molecular target: T2, rat IL-1beta (rat, UniProt Q63264); assay: SPR, 8 nM
T2 chain: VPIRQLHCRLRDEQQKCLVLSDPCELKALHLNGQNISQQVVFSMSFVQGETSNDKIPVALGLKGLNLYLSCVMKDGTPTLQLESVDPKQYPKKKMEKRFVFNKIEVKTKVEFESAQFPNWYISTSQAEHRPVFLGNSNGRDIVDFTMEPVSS

rabbit IL-1beta = molecular target: T3, rabbit IL-1beta (rabbit, UniProt P14628); assay: SPR, 8 nM
T3 chain: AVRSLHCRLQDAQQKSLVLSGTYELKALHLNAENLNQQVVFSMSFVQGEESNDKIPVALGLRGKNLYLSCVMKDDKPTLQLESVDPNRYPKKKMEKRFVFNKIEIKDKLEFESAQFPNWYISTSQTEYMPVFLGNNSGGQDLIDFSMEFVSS

rhesus IL-1beta = molecular target: T4, rhesus IL-1beta (rhesus monkey, UniProt P79182)
T4 chain: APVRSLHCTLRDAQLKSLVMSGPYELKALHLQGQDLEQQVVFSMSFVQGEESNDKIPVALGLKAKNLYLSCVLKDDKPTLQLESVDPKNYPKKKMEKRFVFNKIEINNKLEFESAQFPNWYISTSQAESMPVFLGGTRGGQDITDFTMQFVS

human IL-1Ra = human IL-1Ra (human, UniProt P18510); assay: SPR, 8 nM

Measured: binding result

B1: ACZ885 (antibody, V domains shown)
VH: QVQLVESGGGVVQPGRSLRLSCAASGFTFSVYGMNWVRQAPGKGLEWVAIIWYDGDNQYYADSVKGRFTISRDNSKNTLYLQMNGLRAEDTAVYYCARDLRTGPFDYWGQGTLVTVSS
VL: EIVLTQSPDFQSVTPKEKVTITCRASQSIGSSLHWYQQKPDQSPKLLIKYASQSFSGVPSRFSGSGSGTDFTLTINSLEAEDAAAYYCHQSSSLPFTFGPGTKVDIK
no binding: all assays above

From US7446175 (dated 2008)
